Experimental data as given in ChEMBL document CHEMBL2074163, “Identification of monocarboxylate transporter 8 as a specific thyroid hormone transporter” (J Biol Chem, 2003).

Assays:
Format in all cases: functional, cell-based
Conditions in all cases: Oocyte
[1] = substrate: N[C@@H](Cc1ccc(Oc2cc(I)c(O)c(I)c2)c(I)c1)C(=O)O; experiment: (§1) TP_TRANSPORTER: uptake in Xenopus laevis oocytes
[2] = substrate: NC(Cc1ccc(Oc2cc(I)c(O)c(I)c2)c(I)c1)C(=O)O; experiment: as §1
[3] = substrate: N[C@@H](Cc1cc(I)c(Oc2cc(I)c(O)c(I)c2)c(I)c1)C(=O)O; experiment: as §1

B1: Monocarboxylate transporter 8 (Rattus norvegicus), Q8K1P8 (protein)
chain: MALPSPASEEAEGPCQEANQEYQEPVCSPVPEPEPEPEPEPEPEPEPVPVPPPEPQPEPEPQPLPDPAPLPVLGFEAEPVQEPEPTPTVETRGTARGFQPPEGGFGWIVVFAATWCNGSIFGIHNSVGILYSMLLEEEKEKNRQVEFQAAWVGALAMGMIFFCSPIVSIFTDRLGCRITATTGAAVAFIGLHTSSFTSSLSLRYFTYGILFGCGCSFAFQPSLVILGHYFQRRLGLANGVVSAGSSIFSMSFPFLIKMLGDRIKLAQTFQVLSTFMFVLTLLSLTYRPLLPSSQDTPSKRGAHTLRQRFLVQFRKYFNMRVFRQRTYRIWAFGIAAAALGYFVPYVHLMKYVEDKFKEIKETWVLLVCIGATSGLGRLVSGHISDSIPGLKKIYLQVLSFLLLGLMSMMIPLCRDFGGLIVVCLFLGLCDGFFITIMAPIAFELVGPMQASQAIGYLLGMMALPMIAGPPIAGLLRNCFGNYHVAFYFAGVPPIIGAVILFFVPLMHQRMFKKEQRESSKDKMLSHDPDPNGELLPGSPTPEEPI
- Km [1]: 4 µM
- Km [2]: 2.2 µM
- Km [3]: 4.7 µM
